Laboratory results reported in the nanobody polyreactivity screen of Harvey et al. (2022).

Assay: yeast display, Sf9 membrane polyspecificity reagent, FACS + sequencing; frameworks hold sequencing errors
Method in brief: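 After 36–48 hours of galactose induction, yeast (Saccharomyces cerevisiae BJ5465) displaying a synthetic nanobody library were stained at 4 °C for 1 hour with 10% biotinylated, detergent-solubilized Sf9 membrane reagent. Streptavidin microbeads enriched the stained cells before FACS sorting into low and high (top ~1%) gates on anti-HA and streptavidin fluorescence. Each clone's polyreactivity label reflects its gate of origin.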

Row | Sequence | polyreactivity (PSR sort gate)
1 | QVQLVESGGGLVQAGGSLRLSCAASGFTFNSYAMGWYRQAPGKERELVAAITSSGGRTYYADSVKGRFTISRDNAKNTVYLQMNSLKPEDTAVYYCAARRGGKVATIYDYWGQGTQVTVSS | low polyreactivity
2 | QVQLAESGGGLVQAGGSLRLSCAASGFILHHYTMGWYRQAPGKERELVAAISRSGGSTYYADSVKGRFTISRDNAKNTVYLQMNSLKPEDTAVYYCAKRVSTYGFSGYDYWGQGSQVTVSS | high polyreactivity
3 | QVQLVESGGGLVQAGGSLRLSCAASGLTFGVNAMGWSRQAPGKERELVAAISGSGGRTNYADSVKGRFTISRDNAKNTVYLQMNSLKPEDTAVYYCNARFPDWALSEISHSTTYGYWGQGTQVTVSS | low polyreactivity
4 | QVQLVESGGGLVQAGGSLRLSCAASGFTFWWYTMGWYRQAPGKERELVAAITWSGSRTYYADSVKGRFTISRDNAKNTVYLQMNSLKPEDTAVYYCAATYLKVHGEYDYWGQGTQVTVSS | high polyreactivity
5 | QVQLVEAGGGLVQAGGRLRLSCAASGSIFRRNAMGWYRQAPGTERELVASISSSGGSTYYADSVKGRFTLSRDNAMNTVYLQMNSLKPEDTAVYYCNAYRIRPGTPYGNGYYYWGQGTQVTGSS | high polyreactivity
6 | QVQLLESGGGLVQAGGSLRLSCAASGNIFQVNAMGWYRQAPGKERELVASISRRGGSTNYADSVKGRFTISRDNAKNTVYLQMNSLKPEDTAVYYCAAVARRGSYLGQRLDYWGQGTQVTVSS | high polyreactivity
7 | QVQLVESGGGLVQAGGSLRLSCAASGRTFYWNAMGWYRQAPGKERELVAAITRNGGSTYYADSVKGRFTISRDNAKNNVYLQMNSLKPEDTAVYYCAARKRYGAGYDYWGQGTQVTVSS | high polyreactivity
8 | QVQLVESGGRLVQAGGSLRLSCAASGFSFGGNVIGWYRQAPGKDREFVAAITDGDGSTYYADSVKGRFTISRDNAKNTVYLQMNSLKPEDTSVYYCAGDVYYADVYPVEYWGQGTQVTVSS | high polyreactivity
9 | HVQLQETGGGLVQAGGSLRLSCAASGSIFQATYMGWYRQAPGKEREFVASITYGSITIYADSVKGRFTIGRDNAKDTLYLQMNSLKPEDTAVYYCAVDRHYIPAFHYWGQGTQVTVSS | low polyreactivity
10 | QVQLVESGGGLVQAGGSLRLSCAASGLTFQWNAMGWYRQATGKERELVAVITDIGDSTYYADSVKGRFTISRDNAKNTVYLQMNSLKPEDTAVYYCAADFGTISIDVYSWMDYWGQGTQVTVSS | low polyreactivity
11 | QVQLVESGGGLVQAGGSLRLSCAASGSIFASYDMGWYRQAPGKERELVARITFNGGSTYYADSVKGRFTISRDNAKNTVYLQMNSLKPEETAVYYCNADYPWEYDYWGLGTQVTVSS | low polyreactivity
12 | QVQLVESGGGLVQAGGSLRLSCAASGRIFPGYAMGWYRQAPGKERELVAAISWIGGDTYYADSVKGRFTISRDNAKNTVYLQMNSLKPEDTAVYYCAARYGRHRVSWYATWRYGYWGQGTQVTVSS | low polyreactivity
13 | QVQLVESGGGLVQAGGSLRLSCAASGIIFFTYAMGWYRQATGKERELVAAISSGGSTTYADSVKGRFTISRDNAKNTVYLQMNSLKPEDTAVYYCAAGTQAHDYVVRPIDMDYWGQGTQVTVSS | low polyreactivity
14 | QVQLVESGGGLVQAGGSLRLSCAASGRTIRRYAMGWYRQAPGKERELVAAISYSGGSTYYADSVKGRFTISRDNAKNTVYLQMNSLKPEDTAVYYCAARYLGKKYYYWGQGTQVTVSS | high polyreactivity
15 | QVQLVESGGGLVQAGGSLRLSCAASGSTFTYYAMGWYRQAPGKERELVASISGSGSRTYYADSVKGRFTISRDTAKNTVYLQMNSLTPEDTAVYSCAARFYVRWYYYGSYANYWGQGTQVTVSS | high polyreactivity
16 | QVQLVESGGGLVQARGSLRLSCAASGLIFKYNVMGWYRQAPGTERELVAAITWGGTRTYYADSVKGRFTISRDNAKNTVYLQMNSLKPEDTAVYYCARSHWTWLLIYIGAQDYDYWGQGTQVTVSS | low polyreactivity
17 | QVQLVESGGGLVQAGGSLRISCAASGSTFGSYTMGWYRQAPGKERELVAAIRGGGSTYYADSVKGRFTISRDNAKNTVYLQMNSLKPEDTAVYYCAALSPRRYNPRYGFDYCGQGTQVTVSS | high polyreactivity
18 | QVQLVESAGGLVQAGGILRLSCAASGSTFDSYGMGWYRQAPGKERELVASISVSGGGTYYADSVKGRFTISRDNAKNTVYLQMNSLKPEDTAVYYCNARYGNESQGWEDYWGQGTQVTVSS | low polyreactivity
19 | QVQLVESGGGLVQAGGSLRLSCAASGSTFWYYAMAWYRHAPGKEREMVAAINSDDSTNYADSVKGRFTISRDNAKNTDYLQMNSLKPEDTAVYDCHRGFVYSTTGLWRYYDFDYWGQGTQVTLSS | low polyreactivity
20 | QVQLQESGGGLVQAGGSLRLSCAASGTITVLYKMGWFRQAPGKEREFVASINYGTSTYYADSVKGRFTVSRDSAKNTVYLQMNCLKPEDTAVYYFAAAYRWQDVYRYWGQGTQVTVSS | low polyreactivity
21 | QVQLVESGGGLVQAGGSLRLSCAASGSIFGYYTIGWYRQAPGKEREFVAAITQSGGSTYYADSVKGRFTISRDNAKNTVYLQMNSLKPEDTAVYYCAKQGYLKWGGTGDYWGQGTQVTVSS | high polyreactivity
22 | QVQLVESGGGLVQAGGSLSLTCAASVLTLTGYPMGWYRPAPGKERELVAAISSRGGSTYYADSVKGRFTISRDNAKNTVYLQMNSLKREDTAFYYCDARASSGARGLDYWGQGTQVTVSS | high polyreactivity
